Test results as given in patent US20220119825A1, “SCALABLE PEPTIDE-GPCR INT[…] SYSTEMS” (THE TRUSTEES OF COLUMBIA UNIVERSITY IN THE CITY OF NEW YORK, priority 2019, published 2022).

Legend:
Experiment in all cases: cell-based or functional assay
[1] = target: T1, Pr.Ste2, Ste2-like mating GPCR of Penicillium chrysogenum (Penicillium chrysogenum)
T1 chain: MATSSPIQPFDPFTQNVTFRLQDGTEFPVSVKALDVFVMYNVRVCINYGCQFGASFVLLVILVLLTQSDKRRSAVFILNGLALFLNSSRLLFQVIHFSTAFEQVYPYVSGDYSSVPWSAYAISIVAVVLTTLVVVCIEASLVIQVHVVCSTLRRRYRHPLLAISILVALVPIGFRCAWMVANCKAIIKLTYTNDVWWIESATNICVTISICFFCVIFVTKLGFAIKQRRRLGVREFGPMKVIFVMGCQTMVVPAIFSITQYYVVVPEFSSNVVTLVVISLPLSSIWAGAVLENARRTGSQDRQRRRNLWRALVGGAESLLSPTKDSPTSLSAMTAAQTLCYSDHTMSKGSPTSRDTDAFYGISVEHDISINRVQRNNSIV

[2] = target: T2, Pd.Ste2, Ste2-like mating GPCR of Pseudogymnoascus destructans (Pseudogymnoascus destructans)
T2 chain: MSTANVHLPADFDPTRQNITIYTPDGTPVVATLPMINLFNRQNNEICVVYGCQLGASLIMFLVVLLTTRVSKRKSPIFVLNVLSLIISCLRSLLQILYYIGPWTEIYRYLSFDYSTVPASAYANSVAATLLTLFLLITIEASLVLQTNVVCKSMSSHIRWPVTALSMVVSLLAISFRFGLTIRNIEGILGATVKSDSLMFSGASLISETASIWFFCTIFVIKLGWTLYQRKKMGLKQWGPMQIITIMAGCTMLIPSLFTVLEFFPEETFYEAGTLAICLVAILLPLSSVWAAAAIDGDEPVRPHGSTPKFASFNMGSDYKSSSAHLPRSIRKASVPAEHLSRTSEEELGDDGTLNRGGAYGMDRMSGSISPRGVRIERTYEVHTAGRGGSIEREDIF

[3] = target: T3, Sp.Ste2, Ste2-like mating GPCR of Schizosaccharomyces pombe (Schizosaccharomyces pombe, UniProt Q00619 1-348)
T3 sequence: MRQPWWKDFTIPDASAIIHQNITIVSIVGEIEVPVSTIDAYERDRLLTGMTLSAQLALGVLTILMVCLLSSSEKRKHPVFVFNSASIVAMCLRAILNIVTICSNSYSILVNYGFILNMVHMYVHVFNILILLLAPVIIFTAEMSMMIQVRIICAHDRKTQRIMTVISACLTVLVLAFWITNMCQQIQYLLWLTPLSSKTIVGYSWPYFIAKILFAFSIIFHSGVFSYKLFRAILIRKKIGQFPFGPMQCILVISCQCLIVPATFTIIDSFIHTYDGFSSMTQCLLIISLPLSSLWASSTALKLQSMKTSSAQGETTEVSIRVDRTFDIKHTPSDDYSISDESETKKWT

[4] = target: T4, So.Ste2, Ste2-like mating GPCR of Schizosaccharomyces octosporus (Schizosaccharomyces octosporus)
T4 chain: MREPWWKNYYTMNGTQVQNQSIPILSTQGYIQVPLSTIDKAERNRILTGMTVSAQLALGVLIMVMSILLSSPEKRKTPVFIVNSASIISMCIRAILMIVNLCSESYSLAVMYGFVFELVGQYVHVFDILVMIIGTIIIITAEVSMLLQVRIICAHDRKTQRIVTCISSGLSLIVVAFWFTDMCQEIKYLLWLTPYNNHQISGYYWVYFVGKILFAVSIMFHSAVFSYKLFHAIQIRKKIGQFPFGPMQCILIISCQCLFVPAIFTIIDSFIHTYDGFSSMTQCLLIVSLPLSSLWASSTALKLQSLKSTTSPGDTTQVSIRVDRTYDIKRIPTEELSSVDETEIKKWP

[5] = target: T5, Bm.Ste2, Ste2-like mating GPCR of Baudoinia compniacensis (Baudoinia compniacensis)
T5 chain: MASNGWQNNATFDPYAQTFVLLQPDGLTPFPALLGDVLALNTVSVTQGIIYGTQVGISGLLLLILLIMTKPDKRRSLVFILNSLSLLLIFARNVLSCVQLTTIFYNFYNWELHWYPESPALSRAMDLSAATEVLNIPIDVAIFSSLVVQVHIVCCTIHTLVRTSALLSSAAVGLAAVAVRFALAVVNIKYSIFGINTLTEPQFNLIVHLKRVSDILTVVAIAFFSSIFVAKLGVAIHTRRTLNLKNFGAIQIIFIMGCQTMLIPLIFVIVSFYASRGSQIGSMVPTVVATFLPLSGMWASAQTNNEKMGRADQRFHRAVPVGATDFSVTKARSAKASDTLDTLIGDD

With WCGHIGQGC [Pr peptide ligand #1 WCGHIGQGC] the “Bttm (FUS1p-RFP reporter)” value [1] was 27.9 fluorescence/A600 (not printed), the “EC50 (FUS1p-RFP reporter)” value [1] was -5.8 log10 M (not printed) and the “Fold Change (FUS1p-RFP reporter)” value [1] was 7.4 fold. The “Span (FUS1p-RFP reporter)” value [1] was 179 fluorescence/A600 (not printed) and the “Top (FUS1p-RFP reporter)” value [1] was 207 fluorescence/A600 (not printed).

In the case of FCWRPGQPCG [Pd peptide ligand #1 FCWRPGQPCG], the “Bttm (FUS1p-RFP reporter)” value [2] is reported as 28.8 fluorescence/A600 (not printed), the “EC50 (FUS1p-RFP reporter)” value [2] is reported as -7.7 log10 M (not printed) and the “Fold Change (FUS1p-RFP reporter)” value [2] is reported as 6.6 fold. The “Span (FUS1p-RFP reporter)” value [2] was 161 fluorescence/A600 (not printed) and the “Top (FUS1p-RFP reporter)” value [2] was 190 fluorescence/A600 (not printed).

TYADFLRAYQSWNTFVNPDRPNL [Sp peptide ligand #1 TYADFLRAYQSWNTFVNPDRPNL] was tested, and the “Bttm (FUS1p-RFP reporter)” value [3] was 29.6 fluorescence/A600 (not printed), the “EC50 (FUS1p-RFP reporter)” value [3] was -6.2 log10 M (not printed) and the “Fold Change (FUS1p-RFP reporter)” value [3] was 7.6 fold. For the same binder, the “Span (FUS1p-RFP reporter)” value [3] was 195 fluorescence/A600 (not printed) and the “Top (FUS1p-RFP reporter)” value [3] was 224 fluorescence/A600 (not printed).

TYEDFLRVYKNWWSFQNPDRPDL [So peptide ligand #1 TYEDFLRVYKNWWSFQNPDRPDL] was tested, and the “Bttm (FUS1p-RFP reporter)” value [4] was 23.7 fluorescence/A600 (not printed), the “EC50 (FUS1p-RFP reporter)” value [4] was -7.8 log10 M (not printed) and the “Fold Change (FUS1p-RFP reporter)” value [4] was 11.1 fold. The “Span (FUS1p-RFP reporter)” value [4] was 240 fluorescence/A600 (not printed) and the “Top (FUS1p-RFP reporter)” value [4] was 263 fluorescence/A600 (not printed).

With GWIGRCGVPGSSC [Bm peptide ligand #1 GWIGRCGVPGSSC] the “Bttm (FUS1p-RFP reporter)” value [5] was 30.3 fluorescence/A600 (not printed), the “EC50 (FUS1p-RFP reporter)” value [5] was -6.7 log10 M (not printed) and the “Fold Change (FUS1p-RFP reporter)” value [5] was 5.2 fold. For the same binder, the “Span (FUS1p-RFP reporter)” value [5] was 128 fluorescence/A600 (not printed) and the “Top (FUS1p-RFP reporter)” value [5] was 159 fluorescence/A600 (not printed).
